B1: APC–ARM, human APC (407–751), N-terminally His-tagged (domain or fragment, UniProt P25054 407-751, looked up)
chain: LHLLEQIRAYCETCWEWQEAHEPGMDQDKNPMPAPVEHQICPAVCVLMKLSFDEEHRHAMNELGGLQAIAELLQVDCEMYGLTNDHYSITLRRYAGMALTNLTFGDVANKATLCSMKGCMRALVAQLKSESEDLQQVIASVLRNLSWRADVNSKKTLREVGSVKALMECALEVKKESTLKSVLSALWNLSAHCTENKADICAVDGALAFLVGTLTYRSQTNTLAIIESGGGILRNVSSLIATNEDHRQILRENNCLQTLLQHLKSHSLTIVSNACGTLWNLSARNPKDQEALWDMGAVSMLKNLIHSKHKMIAMGSAAALRNLMANRPAKYKDANIMSPGSSLPS
notes: human APC, armadillo repeat (ARM) domain, residues 407–751; source: E. coli BL21(DE3), purified (Ni2+-NTA, Superdex200)
B2: GST-Amer1 (280–368), full A1 (domain or fragment, human, UniProt Q5JTC6 280-368, looked up)
chain: SLEEPHSPETGEKVVAGEVNPPNGPVGDPLSLLFGDVTSLKSFDSLTGCGDIIAEQDMDSMTDSMASGGQRANRDGTKRSSCLVTYQGG
notes: the methods print full A1: 280–364; also called full Amer1-A1; not shown: GST, N-terminal, kept
B3: GST-Amer1 (325–335), core A1 (domain or fragment, human)
chain: LTGCGDIIAEQ
notes: human Amer1/WTX residues 325–335; The results call the ITC samples peptides; the ITC methods name GST-Amer1 proteins; also called Amer1-A1; not shown: GST, N-terminal, kept
B4: GST-Amer1 (365–375), A4 (domain or fragment, human)
chain: YQGGGEEMALP
notes: human Amer1/WTX residues 365–375; also called Amer1-A4; not shown: GST, N-terminal, kept
B5: GST-Amer1 (380–531), full A2 (domain or fragment, human, UniProt Q5JTC6 380-531, looked up)
chain: EEEEEEEEVELEEEEEEVKEEEEDDDLEYLWETAQMYPRPNMNLGYHPTTSPGHHGYMLLDPVRSYPGLAPGELLTPQSDQQESAPNSDEGYYDSTTPGFEDDSGEALGLVRRDCLPRDSYSGDALYEFYEPDDSLENSPPGDDCLYDLHGR
notes: the methods print full A2: 400–531; also called full Amer1-A2; not shown: GST, N-terminal, kept
B6: GST-Amer1 (496–508), core A2 (domain or fragment, human)
chain: PRDSYSGDALYEF
notes: human Amer1/WTX residues 496–508; The results call the ITC samples peptides; the ITC methods name GST-Amer1 proteins; also called Amer1-A2; not shown: GST, N-terminal, kept
B7: APC–ARM, human APC (407–775), N-terminally His-tagged (domain or fragment, UniProt P25054 407-775, looked up)
chain: LHLLEQIRAYCETCWEWQEAHEPGMDQDKNPMPAPVEHQICPAVCVLMKLSFDEEHRHAMNELGGLQAIAELLQVDCEMYGLTNDHYSITLRRYAGMALTNLTFGDVANKATLCSMKGCMRALVAQLKSESEDLQQVIASVLRNLSWRADVNSKKTLREVGSVKALMECALEVKKESTLKSVLSALWNLSAHCTENKADICAVDGALAFLVGTLTYRSQTNTLAIIESGGGILRNVSSLIATNEDHRQILRENNCLQTLLQHLKSHSLTIVSNACGTLWNLSARNPKDQEALWDMGAVSMLKNLIHSKHKMIAMGSAAALRNLMANRPAKYKDANIMSPGSSLPSLHVRKQKALEAELDAQHLSETFDN
notes: human APC, ARM domain, residues 407–775; source: E. coli BL21(DE3), purified (Ni2+-NTA, Superdex200)
B8: GST-Amer1 (716–834), A3 (domain or fragment, human, UniProt Q5JTC6 716-834, looked up)
chain: TCLMQLFQSDAMFEPDMQEANFGGSPRRAYPTYSPPEDPEEEEVEKEGNATVSFSQALVEFTSNGNLFSSMSCSSDSDSSFTQNLPELPPMVTFDIADVERDGEGKCEENPEFHNDEDL
notes: human Amer1/WTX residues 716–834; The methods list only A3: 766–823 among the GST constructs; not shown: GST, N-terminal, kept
B9: GST-Amer1 (766–823), core A3 (domain or fragment, human, UniProt Q5JTC6 766-823, looked up)
chain: TVSFSQALVEFTSNGNLFSSMSCSSDSDSSFTQNLPELPPMVTFDIADVERDGEGKCE
notes: human Amer1/WTX residues 766–823; not shown: GST, N-terminal, kept
B10: Amer1 (766–823, Δ778–794) (domain or fragment, human, UniProt Q5JTC6 766-823, looked up)
chain: TVSFSQALVEFTSFTQNLPELPPMVTFDIADVERDGEGKCE
notes: human Amer1/WTX residues 766–823 with residues 778–794 deleted; not shown: GST, N-terminal, kept
B11: Amer1-A1 peptide (residues 325–335) (peptide)
peptide: H-LTGCGDIIAEQ-OH
notes: human Amer1/WTX residues 325–335; also called hAmer1-A1 (325–335); source: synthetic peptide (Appeptide Company), HPLC purified
B12: Amer1-A2 peptide (residues 496–508) (peptide)
peptide: H-PRDSYSGDALYEF-OH
notes: human Amer1/WTX residues 496–508; also called hAmer1-A2 (496–508); source: synthetic peptide (Appeptide Company), HPLC purified
B13: Amer1-A4 peptide (residues 365–375) (peptide)
peptide: H-YQGGGEEMALP-OH
notes: human Amer1/WTX residues 365–375; also called hAmer1-A4 (365–375); source: synthetic peptide (Appeptide Company), HPLC purified

Tests used:
[1] = molecular target: FL Amer1/WTX (pcDNA-Flag-Amer1) (not stated (human or mouse cDNA cloned)) (UniProt Q5JTC6); test: co-IP; HEK293T cells transiently transfected; immunoprecipitation with anti-GFP or anti-FLAG M2 beads, western blot
Sequence of FL Amer1/WTX (pcDNA-Flag-Amer1) (not stated (human or mouse cDNA cloned)) (Q5JTC6 whole entry, the tested form may be a part): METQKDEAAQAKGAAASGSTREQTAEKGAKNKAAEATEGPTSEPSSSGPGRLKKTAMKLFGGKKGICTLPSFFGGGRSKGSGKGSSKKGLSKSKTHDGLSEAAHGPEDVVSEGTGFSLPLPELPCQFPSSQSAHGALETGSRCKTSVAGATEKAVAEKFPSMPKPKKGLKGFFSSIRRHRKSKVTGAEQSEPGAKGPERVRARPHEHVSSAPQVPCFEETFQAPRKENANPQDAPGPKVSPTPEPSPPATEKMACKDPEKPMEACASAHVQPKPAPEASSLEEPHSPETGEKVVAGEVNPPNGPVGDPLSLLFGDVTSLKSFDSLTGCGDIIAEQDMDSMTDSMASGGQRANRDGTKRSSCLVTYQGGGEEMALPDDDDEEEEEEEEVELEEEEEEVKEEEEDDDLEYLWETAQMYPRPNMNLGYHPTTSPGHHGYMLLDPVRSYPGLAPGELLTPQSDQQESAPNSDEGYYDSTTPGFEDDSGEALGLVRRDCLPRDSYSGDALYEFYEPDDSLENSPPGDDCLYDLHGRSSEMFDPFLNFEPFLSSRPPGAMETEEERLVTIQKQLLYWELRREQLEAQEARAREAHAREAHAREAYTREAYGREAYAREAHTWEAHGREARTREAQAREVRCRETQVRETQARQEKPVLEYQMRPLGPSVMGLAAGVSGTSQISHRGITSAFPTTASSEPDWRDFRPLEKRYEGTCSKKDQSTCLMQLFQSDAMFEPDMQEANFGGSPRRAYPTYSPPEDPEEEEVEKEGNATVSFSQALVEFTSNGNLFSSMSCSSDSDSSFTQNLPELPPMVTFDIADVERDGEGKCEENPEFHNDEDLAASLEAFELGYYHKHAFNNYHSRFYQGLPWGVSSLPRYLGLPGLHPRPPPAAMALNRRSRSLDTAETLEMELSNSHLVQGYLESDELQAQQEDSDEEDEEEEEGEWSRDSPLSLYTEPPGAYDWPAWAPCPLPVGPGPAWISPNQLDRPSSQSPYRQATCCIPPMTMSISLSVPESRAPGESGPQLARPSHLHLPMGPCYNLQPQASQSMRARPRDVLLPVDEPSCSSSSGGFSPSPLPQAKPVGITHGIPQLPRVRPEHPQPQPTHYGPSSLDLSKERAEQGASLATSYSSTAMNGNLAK

[2] = molecular target: B2; test: ITC; ITC200, 25 °C; 50 mM HEPES pH 7.5, 300 mM NaCl, 1 mM EDTA; typically 200 μM APC–ARM injected into 20 μM GST-Amer1 fragment, or 1 mM GST-Amer1 fragment into 80 μM APC–ARM; single-site model; conditions: both partners purified
[3] = molecular target: B3; test: as above; conditions: both partners purified
[4] = molecular target: B5; test: as above; conditions: both partners purified
[5] = molecular target: B6; test: as above; conditions: both partners purified
GST-Amer1 (365–375), A4 = molecular target: B4; test: as above; conditions: both partners purified
[6] = molecular target: B1; test: as above; conditions: both partners purified
GST-Amer1 (716–834), A3 = molecular target: B8; test: as above; conditions: both partners purified
[7] = molecular target: B9; test: as above; conditions: both partners purified
[8] = molecular target: B10; test: as above; conditions: both partners purified
[9] = molecular target: B7; test: as above; conditions: both partners purified
[10] = molecular target: B1; test: crystal structure; APC–ARM mixed with synthetic Amer1 peptide at 1:1.5; hanging drop, 14 °C; conditions: both partners purified

Q: With “pEGFP-APC–ARM-K516E/M717K double mutant (domain or fragment)” as the molecule, how does the reduction of association against wild type APC–ARM (densitometry) [1] read?
A: Its reduction of association against wild type APC–ARM (densitometry) is 60%.

Q: Which results are given for B1?
A: dH [2]: -1.12 ± 0.55 kcal/mol; stoichiometry N [2]: 0.97 ± 0.39 Amer1/APC ratio; dH [3]: -0.9 ± 0.1 kcal/mol; stoichiometry N [3]: 0.9 ± 0.08 Amer1/APC ratio; dH [4]: -3.5 ± 0.1 kcal/mol; stoichiometry N [4]: 0.92 ± 0.02 Amer1/APC ratio; dH [5]: -5.2 ± 0.2 kcal/mol; stoichiometry N [5]: 1.08 ± 0.02 Amer1/APC ratio; dH (GST-Amer1 (365–375), A4): -3.5 ± 0.1 kcal/mol; stoichiometry N (GST-Amer1 (365–375), A4): 0.95 ± 0.02 Amer1/APC ratio

Q: With B2 as the molecule, how does the Kd [6] read?
A: Its Kd is 8000 ± 4100 nM.

Q: For B3, which Kd [6] is on record?
A: Its Kd is 14400 ± 4300 nM.

Q: How did the Kd [6] turn out when B4 was run?
A: Its Kd is 2000 ± 300 nM.

Q: With B5 as the molecule, how does the Kd [6] read?
A: Its Kd is 500 ± 100 nM.

Q: With B6 as the molecule, how does the Kd [6] read?
A: Its Kd is 1100 ± 200 nM.

Q: For B7, which dH (GST-Amer1 (716–834), A3) is on record?
A: The dH was -1.82 ± 0.06 kcal/mol.

Q: And the “stoichiometry N” value (GST-Amer1 (716–834), A3)?
A: Its value is 0.99 ± 0.02 Amer1/APC ratio.

Q: And the dH [7]?
A: Its dH is -1.82 ± 0.04 kcal/mol.

Q: And the “stoichiometry N” value [7]?
A: The value was 1 ± 0.02 Amer1/APC ratio.

Q: What about the dH [8] of the same molecule?
A: Its dH is -1.39 ± 0.06 kcal/mol.

Q: What about the “stoichiometry N” value [8] of the same molecule?
A: Its value is 1.02 ± 0.03 Amer1/APC ratio.

Q: With B8 as the molecule, how does the Kd [9] read?
A: Its Kd is 130 ± 60 nM.

Q: For B9, which Kd [9] is on record?
A: The Kd was 270 ± 70 nM.

Q: For B10, which Kd [9] is on record?
A: Its Kd is 220 ± 110 nM.

Q: Does B11 bind [10]?
A: Result: binds

Q: Does B12 bind [10]?
A: Result: binds

Q: Does B13 bind [10]?
A: Result: binds

Source: publication PMC4860839, “Structures of the APC–ARM domain in complexes with discrete Amer1/WTX fragments reveal that it uses a consensus mode to recognize its binding partners” (Cell Discovery, 2015)
